In article PMC10397247 one finds interaction score data, which are given here for 11 molecules.

Holding throughout (experiment): two-hybrid library CCmax;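 further: natural log of median RNA to DNA barcode read ratio; higher means stronger binding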
In one assay the target is T1, Core_NIIN-es_KEKK.
T1 chain: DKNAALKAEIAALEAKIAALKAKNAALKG

The target of a further assay is T2, 4H2219-AA.
T2 chain: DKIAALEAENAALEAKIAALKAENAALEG
Conditions: mean of both orientations.

The target in the next assay is T3, O1-AA.
T3 chain: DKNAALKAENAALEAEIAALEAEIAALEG
Conditions: mean of both orientations.

The target in another assay is T4, O7-AA.
T4 chain: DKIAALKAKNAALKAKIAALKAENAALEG
Conditions: mean of both orientations.

The target of a further assay is T5, P6-AA-12HAA-H.
T5 chain: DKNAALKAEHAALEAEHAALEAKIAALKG
Conditions: mean of both orientations.

Another assay has as its target T6, 4H1405-AA.
T6 chain: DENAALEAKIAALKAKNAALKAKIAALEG
Conditions: mean of both orientations.

In the next assay the target is T7, 4H1985-AA.
T7 chain: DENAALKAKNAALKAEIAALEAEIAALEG
Conditions: mean of both orientations.

Another assay concerns the target T8, 4H2536-AA.
T8 chain: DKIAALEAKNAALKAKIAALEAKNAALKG
Conditions: mean of both orientations.

The next assay addresses T9, 4H2646-AA.
T9 chain: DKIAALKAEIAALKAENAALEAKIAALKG
Particulars: mean of both orientations.

The target in another assay is T10, 4H2873-AA.
T10 chain: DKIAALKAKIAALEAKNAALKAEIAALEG
Conditions: mean of both orientations.

In a further assay the target is T11, 4H55-AA.
T11 chain: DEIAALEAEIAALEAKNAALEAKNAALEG
Conditions: mean of both orientations.

The next assay has as its target T12, 4H775-AA.
T12 chain: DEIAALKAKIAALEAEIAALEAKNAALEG
Particulars: mean of both orientations.

Another assay deals with T13, P5-AA-12HGe-D.
T13 chain: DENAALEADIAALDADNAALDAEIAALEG
Particulars: mean of both orientations.

The next assay concerns the target T14, P5-AA-12HGe-R.
T14 chain: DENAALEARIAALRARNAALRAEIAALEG
Conditions: mean of both orientations.

The next assay has as its target T15, P5-AA-12HGe-S.
T15 chain: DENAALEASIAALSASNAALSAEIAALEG
Conditions: mean of both orientations.

Another assay deals with T16, P5-AA-12HGe-W.
T16 chain: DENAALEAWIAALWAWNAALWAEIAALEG
Conditions: mean of both orientations.

A further assay has as its target T17, P5-AA-1HGe-A.
T17 chain: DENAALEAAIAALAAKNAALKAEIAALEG
Conditions: mean of both orientations.

A further assay has as its target T18, P5-AA-1HGe-D.
T18 chain: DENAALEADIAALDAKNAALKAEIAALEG
Conditions: mean of both orientations.

The next assay concerns the target T19, P5-AA-1HGe-H.
T19 chain: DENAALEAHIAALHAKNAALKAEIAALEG
Conditions: mean of both orientations.

For the next assay, the target named is T20, P5-AA-1HGe-R.
T20 chain: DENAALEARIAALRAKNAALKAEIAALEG
Conditions: mean of both orientations.

In another assay the target is T21, P5-AA-1HGe-T.
T21 chain: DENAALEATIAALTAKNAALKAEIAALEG
Conditions: mean of both orientations.

For another assay, the target named is T22, 4H1109-AA.
T22 chain: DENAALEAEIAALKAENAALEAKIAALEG
Particulars: mean of both orientations.

In another assay the target is T23, 4H2742-AA.
T23 chain: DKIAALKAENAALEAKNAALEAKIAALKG
Particulars: mean of both orientations.

Another assay deals with T24, 4H3029-AA.
T24 chain: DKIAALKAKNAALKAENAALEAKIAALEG
Particulars: mean of both orientations.

The next assay deals with T25, 4H3920-AA.
T25 chain: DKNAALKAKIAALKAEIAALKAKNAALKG
Conditions: mean of both orientations.

A further assay concerns the target T26, 4H2604-AA.
T26 chain: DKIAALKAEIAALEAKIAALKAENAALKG
Conditions: mean of both orientations.

The target of a further assay is T27, 4H324-AA.
T27 chain: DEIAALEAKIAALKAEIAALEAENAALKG
Conditions: mean of both orientations.

The target in another assay is T28, 4H140-AA.
T28 chain: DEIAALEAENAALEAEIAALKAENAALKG
Particulars: mean of both orientations.

Another assay has as its target T29, 4H3365-AA.
T29 chain: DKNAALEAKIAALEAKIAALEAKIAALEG
Conditions: mean of both orientations.

The target in another assay is T30, 4H3651-AA.
T30 chain: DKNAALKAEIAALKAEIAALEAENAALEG
Particulars: mean of both orientations.

In a further assay the target is T31, 4H3705-AA.
T31 chain: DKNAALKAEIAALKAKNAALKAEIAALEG
Particulars: mean of both orientations.

The next assay concerns the target T32, P6-AA-12HGe-K.
T32 chain: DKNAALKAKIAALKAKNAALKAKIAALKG
Conditions: mean of both orientations.

The target of the next assay is T33, P6-AA-12HGe-S.
T33 chain: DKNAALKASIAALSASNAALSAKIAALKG
Particulars: mean of both orientations.

In another assay the target is T34, P6-AA-12HGe-W.
T34 chain: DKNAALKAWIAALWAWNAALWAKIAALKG
Conditions: mean of both orientations.

The target of a further assay is T35, P6-AA-1HAA-T.
T35 chain: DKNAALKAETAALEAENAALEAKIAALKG
Conditions: mean of both orientations.

The next assay addresses T36, P6-AA-1HGe-Q.
T36 chain: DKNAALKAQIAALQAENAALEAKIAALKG
Particulars: mean of both orientations.

In the next assay the target is T37, 4H2447-AA.
T37 chain: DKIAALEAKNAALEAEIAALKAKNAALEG
Conditions: mean of both orientations.

The next assay deals with T38, 4H733-AA.
T38 chain: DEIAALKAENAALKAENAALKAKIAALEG
Conditions: mean of both orientations.

The target in another assay is T39, APC1434-AA.
T39 chain: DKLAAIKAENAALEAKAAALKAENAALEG
Conditions: mean of both orientations.

The target of a further assay is T40, APC2405-AA.
T40 chain: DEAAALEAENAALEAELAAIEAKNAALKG
Conditions: mean of both orientations.

The target in another assay is T41, APC9096-AA.
T41 chain: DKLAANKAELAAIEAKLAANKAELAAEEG
Particulars: mean of both orientations.

Another assay has as its target T42, APC9319-AA.
T42 chain: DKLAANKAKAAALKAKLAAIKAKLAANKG
Particulars: mean of both orientations.

The molecule DENAALEAENAALEAEIAALEAEIAALEG [4H1153-AA] gave an interaction score with Core_NIIN-es_KEKK of 1.86.
In the assay with 4H2219-AA, DENAALKAEIAALKAENAALKAEIAALKG [4H1626-AA] came in with an interaction score of -1.54.
On to DEIAALEAENAALEAKIAALKAENAALEG [4H171-AA], for which the results for the interaction score with O1-AA and in the assay with O7-AA were -1.52 and 1.08, respectively.
As to DENAALEAKIAALKAKIAALKAEIAALEG [4H1385-AA], the interaction score with P6-AA-12HAA-H came to 1.75.
Turning to DENAALEAKIAALKAEIAALEAKIAALKG [4H1350-AA], the interaction score is -0.893 with 4H1405-AA; 0.316 with 4H1985-AA; -0.188 in the assay with 4H2536-AA; -0.455 with 4H2646-AA; 1.38 with 4H2873-AA; -1.11 with 4H55-AA. Further, the interaction score in the assay with 4H775-AA was 1.63.
For DKNAALKAEIAALEAENAALEAKIAALKG [4H3606-AA], the interaction score with P5-AA-12HGe-D is -1.24; with P5-AA-12HGe-R, 1.65; with P5-AA-12HGe-S, -0.516; with P5-AA-12HGe-W it was 1.04; with P5-AA-1HGe-A, 2.06; with P5-AA-1HGe-D, 1.14. The interaction score was determined as 2.15 with P5-AA-1HGe-H, 2.23 in the assay with P5-AA-1HGe-R and 2.43 in the assay with P5-AA-1HGe-T.
Turning to DENAALEAEIAALEAKIAALEAKNAALKG [4H1064-AA], the interaction score with 4H1109-AA is -1.24; in the assay with 4H2742-AA, -1.78; with 4H3029-AA it was -1.16; in the assay with 4H3920-AA, 1.13.
With DEIAALEAENAALKAKNAALKAEIAALEG [4H249-AA], the values for the interaction score with 4H2604-AA and in the assay with 4H324-AA were -1.73 and -1.59, respectively.
Regarding DENAALEAENAALKAKIAALKAEIAALEG [4H1257-AA], the interaction score in the assay with 4H140-AA was -1.43; in the assay with 4H3365-AA, -1.46; in the assay with 4H3651-AA it was -1.01; with 4H3705-AA it was -1.52.
For DENAALEAKIAALKAKNAALKAEIAALEG [4H1401-AA], the interaction score was -0.592 with P6-AA-12HGe-K; -0.834 with P6-AA-12HGe-S; -1.79 with P6-AA-12HGe-W; 1.96 with P6-AA-1HAA-T; 2.02 with P6-AA-1HGe-Q.
In the case of DENAALKAKIAALEAKNAALEAKIAALEG [4H1845-AA], the interaction score was -1.57 with 4H2447-AA; -1.33 with 4H733-AA; -1.56 in the assay with APC1434-AA; -1.12 with APC2405-AA; -2.08 with APC9096-AA; -1.55 in the assay with APC9319-AA.
